# Measured values from the supplement of paper PMC10567573.
# B1: KRT34 (parent)
# chain: YQSYFKTIEELQQKILCAKAENAR
# Variants of: B1
# Experiment: protein stability index of a GFP-peptide fusion (GPS, HEK-293T) (PSI 1-6); higher = more stable
# Details: c terminus: a fixed tail appended
# 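Also: lentivirally expressed fusions sorted by FACS into six bins by GFP to DsRed ratio, PSI derived from sequencing read proportions per bin multiplied by bin number.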
row,Variant,protein stability index
1,YQSYFKTIRELQQKILCAKAENAR [E9R],1.75
2,YQSYFKTIVELQQKILCAKAENAR [E9V],3.47
3,YQSYFKTITELQQKILCAKAENAR [E9T],1.84
4,YQSYFKTIEELQQKLLCAKAENAR [I15L],1.95
5,YQSYFKTIEELQQKDLCAKAENAR [I15D],1.88
6,YQSYFKTIEELQQKKLCAKAENAR [I15K],2.71
7,YQSYFKTIEELQQKQLCAKAENAR [I15Q],1.71
8,YQSYFKTIEELQQKCLCAKAENAR [I15C],1.16
9,YQSYFKTIEELQQKYLCAKAENAR [I15Y],2.25
10,YQSYFKTIEELQQKRLCAKAENAR [I15R],1.66
11,YQSYFKTIEELQQKNLCAKAENAR [I15N],2.23
12,YQSYFKTIEELQQKMLCAKAENAR [I15M],1.89
13,YQSYFKTIEELQQKHLCAKAENAR [I15H],1.87
14,YQSYFKTIEELQQKWLCAKAENAR [I15W],2.2
15,YQSYFKTIEELQQKPLCAKAENAR [I15P],1.71
16,YQSYFKTIEELQQKTLCAKAENAR [I15T],1.57
17,YQSYFKTIEELQQKFLCAKAENAR [I15F],1.6
18,YQSYFKTIEELQQKSLCAKAENAR [I15S],1.81
19,YQSYFKTIEELQQKELCAKAENAR [I15E],2.03
20,YQSYFKTIEELQQKGLCAKAENAR [I15G],1.45
21,YQSYFKTIEELQQKILWAKAENAR [C17W],2.94
22,YQSYFKTIEELQQKILLAKAENAR [C17L],2.6
23,YQSYFKTIEELQQKILQAKAENAR [C17Q],2.56
24,YQSYFKTIEELQQKILVAKAENAR [C17V],1.37

row,Variant,protein stability index
1,YQSYFKTIEELQQKILTAKAENAR [C17T],2.04
2,YQSYFKTIEELQQKILDAKAENAR [C17D],1.84
3,YQSYFKTIEELQQKILEAKAENAR [C17E],2.39
4,YQSYFKTIEELQQKILGAKAENAR [C17G],2.32
5,YQSYFKTIEELQQKILKAKAENAR [C17K],2.51
6,YQSYFKTIEELQQKILNAKAENAR [C17N],1.88
7,YQSYFKTIEELQQKILHAKAENAR [C17H],2.06
8,YQSYFKTIEELQQKILMAKAENAR [C17M],2.11
9,YQSYFKTIEELQQKILAAKAENAR [C17A],2.56
10,YQSYFKTIEELQQKILSAKAENAR [C17S],2.19
11,YQSYFKTIEELQQKILYAKAENAR [C17Y],2.15
12,YQSYFKTIEELQQKILIAKAENAR [C17I],2.16
13,YQSYFKTIEELQQKILFAKAENAR [C17F],1.97
14,YQSYFKTIEELQQKILRAKAENAR [C17R],2.42
15,YQSYFKTIEELQQKILPAKAENAR [C17P],2.25
16,YQSYFKTIEELAQKILCAKAENAR [Q12A],1.6
17,YQSYFKTIEELGQKILCAKAENAR [Q12G],1.97
18,YQSYFKTIEELRQKILCAKAENAR [Q12R],2.63
19,YQSYFKTIEELSQKILCAKAENAR [Q12S],1.77
20,YQSYFKTIEELPQKILCAKAENAR [Q12P],1.4
21,YQSYFKTIEELCQKILCAKAENAR [Q12C],1.78
22,YQSYFKTIEELHQKILCAKAENAR [Q12H],2.34
23,YQSYFKTIEELYQKILCAKAENAR [Q12Y],1.77
24,YQSYFKTIEELLQKILCAKAENAR [Q12L],1.9

row,Variant,protein stability index
1,YQSYFKTIEELNQKILCAKAENAR [Q12N],1.65
2,YQSYFKTIEELTQKILCAKAENAR [Q12T],2.21
3,YQSYFKTIEELFQKILCAKAENAR [Q12F],2.02
4,YQSYFKTIEELVQKILCAKAENAR [Q12V],1.55
5,YQSYFKTIEELDQKILCAKAENAR [Q12D],1.69
6,YQSYFKTIEELIQKILCAKAENAR [Q12I],3.66
7,YQSYFKTIEELKQKILCAKAENAR [Q12K],2
8,YQSYFKTIEELEQKILCAKAENAR [Q12E],1.48
9,YQSYFKTIEELMQKILCAKAENAR [Q12M],2.15
10,YQSYFKTIEELQIKILCAKAENAR [Q13I],1.5
11,YQSYFKTIEELQGKILCAKAENAR [Q13G],1.96
12,YQSYFKTIEELQVKILCAKAENAR [Q13V],1.96
13,YQSYFKTIEELQHKILCAKAENAR [Q13H],2.29
14,YQSYFKTIEELQDKILCAKAENAR [Q13D],2.26
15,YQSYFKTIEELQLKILCAKAENAR [Q13L],1.46
16,YQSYFKTIEELQPKILCAKAENAR [Q13P],1.78
17,YQSYFKTIEELQTKILCAKAENAR [Q13T],1.74
18,YQSYFKTIEELQSKILCAKAENAR [Q13S],1.52
19,YQSYFKTIEELQFKILCAKAENAR [Q13F],2.05
20,YQSYFKTIEELQRKILCAKAENAR [Q13R],2.16
21,YQSYFKTIEELQMKILCAKAENAR [Q13M],1.82
22,YQSYFKTIEELQAKILCAKAENAR [Q13A],2.02
23,YQSYFKTIEELQKKILCAKAENAR [Q13K],1.95
24,YQSYFKTIEELQEKILCAKAENAR [Q13E],2.2

row,Variant,protein stability index
1,YQSYFKTIEELQNKILCAKAENAR [Q13N],1.92
2,YQSYFKTIEELQYKILCAKAENAR [Q13Y],1.54
3,YQSYFKTIEELQCKILCAKAENAR [Q13C],1.82
4,YQSYFKTIEELQQYILCAKAENAR [K14Y],1.46
5,YQSYFKTIEELQQTILCAKAENAR [K14T],1.56
6,YQSYFKTIEELQQWILCAKAENAR [K14W],3.3
7,YQSYFKTIEELQQCILCAKAENAR [K14C],1.2
8,YQSYFKTIEELQQSILCAKAENAR [K14S],2.27
9,YQSYFKTIEELQQMILCAKAENAR [K14M],1.46
10,YQSYFKTIEELQQIILCAKAENAR [K14I],1.52
11,YQSYFKTIEELQQRILCAKAENAR [K14R],1.77
12,YQSYFKTIEELQQGILCAKAENAR [K14G],1.69
13,YQSYFKTIEELQQEILCAKAENAR [K14E],2.61
14,YQSYFKTIEELQQHILCAKAENAR [K14H],1.99
15,YQSYFKTIEELQQPILCAKAENAR [K14P],1.97
16,YQSYFKTIEELQQFILCAKAENAR [K14F],2
17,YQSYFKTIEELQQAILCAKAENAR [K14A],1.41
18,YQSYFKTIEELQQVILCAKAENAR [K14V],1.98
19,YQSYFKTIEELQQNILCAKAENAR [K14N],1.53
20,YQSYFKTIEELQQQILCAKAENAR [K14Q],2.14
21,YQSYFKTIEELQQLILCAKAENAR [K14L],2.62
22,YQSYFKTIEELQQDILCAKAENAR [K14D],1.23
